Measured values taken from patent US20250230248A1.

Key:
[1] = target: recombinant human CD64 (human) (UniProt P12314)
[2] = target: recombinant human CD16a (human) (UniProt P08637)
[3] = target: recombinant human CD32a (human) (UniProt P12318)
[4] = target: human C1q (human) (UniProt P02745)
Chain of human C1q (human) (P02745 23-245 limits assumed, chain 1 of 3): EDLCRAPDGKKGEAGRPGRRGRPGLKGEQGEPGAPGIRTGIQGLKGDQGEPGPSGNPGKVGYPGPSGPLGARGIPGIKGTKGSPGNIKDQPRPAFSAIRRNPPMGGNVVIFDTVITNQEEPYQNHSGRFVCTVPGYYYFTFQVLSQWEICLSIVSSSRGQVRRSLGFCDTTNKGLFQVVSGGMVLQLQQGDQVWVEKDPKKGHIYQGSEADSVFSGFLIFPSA
Chain of human C1q (human) (P02746 28-253 limits assumed, chain 2 of 3, further chain): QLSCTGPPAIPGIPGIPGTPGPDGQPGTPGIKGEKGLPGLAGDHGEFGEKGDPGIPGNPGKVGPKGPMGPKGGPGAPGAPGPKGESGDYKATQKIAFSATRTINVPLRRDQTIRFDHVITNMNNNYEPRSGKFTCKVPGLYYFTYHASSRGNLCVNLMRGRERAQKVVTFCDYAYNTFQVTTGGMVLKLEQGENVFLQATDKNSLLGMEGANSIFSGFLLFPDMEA
Chain of human C1q (human) (P02747 29-245 limits assumed, chain 3 of 3, further chain): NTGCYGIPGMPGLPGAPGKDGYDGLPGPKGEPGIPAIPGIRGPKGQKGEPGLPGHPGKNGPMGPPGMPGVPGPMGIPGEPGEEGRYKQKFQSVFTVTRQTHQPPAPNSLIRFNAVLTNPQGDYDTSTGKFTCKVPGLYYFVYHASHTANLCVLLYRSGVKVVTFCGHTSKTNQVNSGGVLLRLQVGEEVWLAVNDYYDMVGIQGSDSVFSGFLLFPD

Chain of recombinant human CD16a (human) (P08637 17-208 limits assumed): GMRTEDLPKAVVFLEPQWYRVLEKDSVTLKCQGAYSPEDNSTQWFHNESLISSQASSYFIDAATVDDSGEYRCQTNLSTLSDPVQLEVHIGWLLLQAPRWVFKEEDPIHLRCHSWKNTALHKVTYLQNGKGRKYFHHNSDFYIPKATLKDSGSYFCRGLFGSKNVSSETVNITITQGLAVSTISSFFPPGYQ
Chain of recombinant human CD64 (human) (P12314 16-288 limits assumed): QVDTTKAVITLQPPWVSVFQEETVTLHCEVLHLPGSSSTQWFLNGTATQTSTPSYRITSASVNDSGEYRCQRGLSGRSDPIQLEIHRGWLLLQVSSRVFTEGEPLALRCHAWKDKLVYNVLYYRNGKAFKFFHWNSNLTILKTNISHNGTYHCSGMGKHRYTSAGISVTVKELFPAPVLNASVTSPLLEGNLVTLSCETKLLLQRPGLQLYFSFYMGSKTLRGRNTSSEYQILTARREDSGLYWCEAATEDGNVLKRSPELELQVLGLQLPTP
Chain of recombinant human CD32a (human) (P12318 34-217): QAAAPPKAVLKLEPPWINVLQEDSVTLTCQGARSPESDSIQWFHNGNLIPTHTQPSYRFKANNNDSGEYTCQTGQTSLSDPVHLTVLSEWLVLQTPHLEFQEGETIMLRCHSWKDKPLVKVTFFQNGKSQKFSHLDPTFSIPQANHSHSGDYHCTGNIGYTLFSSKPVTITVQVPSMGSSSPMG

Substance: isotype mAb with human IgG1 (antibody)
- EC50 [1]: 0.12 nM
- EC50 [2]: 3.7 nM
- EC50 [3]: 14 nM
- EC50 [4]: 14.1 nM
